Results on five molecules are retold here after patent US12012446B2, “Epstein-Barr virus antibodies and uses thereof” (priority 2017, dated 2024).

Experiment [1] concerns EBV-eGFP infection of Raji cells. Description: EBV neutralization assay in Raji cells. The note with it: for EBV neutralization, summary statement: as stated in Example 8; for blocking of EBV infection of Raji cells (in words) / blocking of EBV infection of Raji cells (nAb activity): protein G and size-exclusion chromatography-purified mAbs; for blocking of EBV infection of Raji cells (in words) / neutralization of EBV in Raji cells: 12.5-100 μg/ml; for neutralization of EBV in Raji cells (in words): spin-column purified mAbs, 12.5, 25, 50 and 100 μg/ml; for blocking of EBV infection of Raji cells (nAb activity): lowest concentration 12.5 μg/ml; for neutralization of EBV in Raji cells: spin-column purified mAbs. It is filed as cell-based, Epstein-Barr virus. The protocol:
EBV neutralization assay was performed in Raji cells as previously described (47). Briefly, purified individual anti-gp350 mAbs were incubated with purified AGS-EBV-eGFP (titer calculated to infect at least 8% of HEK293 cells seeded in 100 μl of serum-free DMEM) for 2 hours at 37° C. To represent EBV infection of B cells, the pre-incubated anti-gp350 mAbs/AGS-EBV-eGFP were used to infect 5×10^5 Raji cells seeded in a 96-well plate for 2 hours at 37° C. Neutralizing 72A1 and non-neutralizing 2L10 anti-gp350 mAbs served as positive and negative controls, respectively. Infected cells were washed three times with PBS to remove any unbound viruses and antibodies. Washed, infected cells were incubated in 96-well plates at 37° C. for 48 hours post-infection and the number of eGFP+ (infected) cells was determined using flow cytometry. All dilutions were performed in quintuplicate and the assays were repeated three times. Antibody EBV neutralization activity was calculated as: % neutralization=(EBValone−EBVmAb)/(EBValone)×100.
However, this antibody was recently reported to be a mixture of both functional and non-functional antibodies (50). […] The percentage of eGFP+ cells (percent infection) was determined using flow cytometry as described (47). The nAbs 72A1 and E1D1 were used as positive controls, whereas the anti-gp350 non-neutralizing mAb 2L10 and KSHV gH/gL mAb 54A1 were used as negative controls. Because HB4, HB13, HB15, HB16, HB19, HB21, and HB23 were confirmed to be polyclonal based on isotyping and/or sequence data, they were eliminated from further consideration in the neutralization assay. HB18 was not used in neutralization experiments because it was identical to HB8.
The purified eGFP-tagged-EBV was titered in Raji cells to determine percent EBV infection using a range of volumes (50-250 μl) (FIG. 5A). Then initial neutralization of EBV was conducted in Raji cells using purified mAbs at various concentrations (12.5, 25, 50, and 100 μg/ml).
EBV-eGFP+ cells were enumerated using flow cytometry.
Background: Size exclusion chromatography separates by hydrodynamic size, large species first.

The subject of experiment [2] is EBV gp350 20-mer linear peptides (gp350 regions). The class given is binding, Epstein-Barr virus. The note with it: 10 μg/ml mAb, 10 μg/ml peptide. Here is the method: Forty-five sequential 20-mer linear peptides, covering the whole sequence of gp350 (GenBank: NC_007605.1), with an exception of aa 862-881, were synthesized using a solid phase method and cleaved using a low-high hydrogen fluoride method by the GenicBio, as previously described (58).
The binding of anti-gp350 mAbs to 45 synthesized 20-mer sequential peptides covering the total length of gp350 was analyzed using indirect ELISA as described (58). Briefly, immunoplates were coated with 50 μl of 10 μg/ml EBV gp350 peptides (forty-five 20-mers) diluted in PBS and incubated overnight at 4° C.; 0.5 μg/ml recombinant EBV gp350 ectodomain protein was used as a positive control. After washing three times with washing buffer (PBS containing 0.05% (v/v) Tween 20), plates were blocked with 100 μl washing buffer containing 3% BSA (blocking buffer), incubated for 1 hour at room temperature, and washed as above. Ten μg/ml purified mAbs were added to each well in triplicate and incubated for 2 hours at room temperature. […] The plates were washed as described above, followed by incubation with goat anti-mouse IgG or goat anti-human IgG HRP-conjugated secondary antibody (1:2,000 diluted in PBS) at room temperature for 1 hour. The plates were washed again and the chromogenic substrate ABTS was added. The reaction was stopped using ABTS peroxidase stop solution. The absorbance was read at an optical density of 405 nm using an ELISA plate reader.
The peptide library, consisting of 20-mer peptides, covered the entire gp350 protein, with the exception of AA 862-881 (Table 9).
Purified recombinant gp350 ectodomain was used as a control to validate the binding activity for all of the antibodies used. The overall gp350 sequence was divided into nine different regions consisting of ˜100 AA (FIG. 7).

Experiment [3] addresses T1, purified EBV gp350/220 (recombinant EBV gp350 ectodomain) (Epstein-Barr virus, UniProt P03200).
T1 construct: purified EBV gp350 ectodomain protein (AA 4-863); purchased Immune Technology Corporation
Description: Indirect ELISA on recombinant EBV gp350 ectodomain. The class given is binding. The protocol: Briefly, immunoplates (Costar 3590; Corning Incorporated) were coated with 50 μl of 0.5 μg/ml recombinant EBV gp350 ectodomain (Immune Technology Corporation) diluted in 1× phosphate buffered saline (PBS, pH 7.4) and incubated overnight at 4° C. After washing three times with 1×PBS containing 0.05% (v/v) Tween 20 (washing buffer), plates were blocked with 100 μl washing buffer containing 2% (w/v) bovine serum albumin (BSA) (blocking buffer) then incubated for 1 h at room temperature and washed as above. 100 μl of hybridoma supernatant or 50 μl of 10 μg/ml purified mAbs was added to each well (in triplicate) and incubated for 2 h at room temperature. […] The plates were washed as described above, followed by incubation with 50 μl of goat anti-mouse IgG HRP-conjugated secondary antibody (1:2,000 diluted in 1×PBS) at room temperature for 1 h. The plates were washed again and 100 μl of chromogenic substrate 2,2′-azino-bis (3-ethylbenzothiazoline-6-sulphonic acid) (ABTS, Life Science Technologies) was added. The reaction was stopped using 100 μl of ABTS peroxidase stop solution containing 5% sodium dodecyl sulfate (SDS) in water. The absorbance was read at an optical density of 405 nm using an ELISA reader (Molecular Devices). All experiments were performed in triplicate and confirmed in three independent experiments.
ELISA binding of anti-gp350 and anti-gH/gL to soluble gp350 and gH/gL proteins was performed. Soluble EBV gp350 and gH/gL proteins were used as the target antigen at 0.5 μg/ml. 1× phosphate buffered saline (PBS) was used as negative (not shown) control. Bound antibodies were detected using HRP-conjugated anti-mouse or anti-human IgG (1:2,000).
Background: An ELISA detects its analyte on a solid surface through an enzyme-linked reagent.

T1 sequence (P03200 4-863): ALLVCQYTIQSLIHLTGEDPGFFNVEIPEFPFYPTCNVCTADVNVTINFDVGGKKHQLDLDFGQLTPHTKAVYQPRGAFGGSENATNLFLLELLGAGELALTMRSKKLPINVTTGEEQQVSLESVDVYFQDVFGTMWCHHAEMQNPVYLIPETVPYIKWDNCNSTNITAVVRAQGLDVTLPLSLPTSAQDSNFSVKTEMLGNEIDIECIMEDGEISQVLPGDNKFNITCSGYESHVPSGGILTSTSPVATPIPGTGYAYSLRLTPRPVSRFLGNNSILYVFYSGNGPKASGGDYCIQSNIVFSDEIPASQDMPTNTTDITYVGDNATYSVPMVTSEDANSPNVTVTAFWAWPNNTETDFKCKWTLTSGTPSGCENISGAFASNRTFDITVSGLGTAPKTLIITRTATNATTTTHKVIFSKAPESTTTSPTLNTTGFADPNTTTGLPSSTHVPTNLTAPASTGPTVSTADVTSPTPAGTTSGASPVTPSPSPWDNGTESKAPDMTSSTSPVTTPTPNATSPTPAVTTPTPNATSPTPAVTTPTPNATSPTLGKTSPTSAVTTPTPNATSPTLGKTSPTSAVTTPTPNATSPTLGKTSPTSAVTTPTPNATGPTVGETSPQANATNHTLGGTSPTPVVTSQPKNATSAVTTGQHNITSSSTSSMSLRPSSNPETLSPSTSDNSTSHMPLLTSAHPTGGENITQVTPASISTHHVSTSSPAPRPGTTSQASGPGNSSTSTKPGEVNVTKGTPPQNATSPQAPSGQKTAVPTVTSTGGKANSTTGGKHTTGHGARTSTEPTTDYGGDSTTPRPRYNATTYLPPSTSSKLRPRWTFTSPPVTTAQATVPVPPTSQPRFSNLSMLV

B1: HB20: murine anti-EBV gp350 mAb, IgG2a κ; SEQ ID NO: 128 / 129; neutralizing (antibody, V domains shown)
VH: ELVKPGASVKLSCKASGYTFTSYWIQWVKQRPGQGLEWIGEINPTNGHTNYNEKFKTKATLTVDKSSSTAYMRLSSLTSEDSAVYYCARNLYYYGRPDYWGQGTSVTVSSAKTTAPSVYPLAPVCGDTTGSSVTLG
VL: SSLSASLGDRVTISCRASQDIGNYLNWYQQKPDGTVKLLIYYTSRLHSGVPSRFSGSGSGTDYSLTISNLEQEDIATYFCQQGNALPPTFGGGTKLEIKRADAAPTV
modifications: heavy chain mAb HB20; light chain mAb HB20
notes: murine anti-EBV gp350 mAb, IgG2a κ; neutralizing
As for B1, in experiment [1], the “EBV neutralization, summary statement” value was “one of the best nAb”; the “blocking of EBV infection of Raji cells (in words)” value (shortened to “blocking … (in words)”) is “blocked EBV infection in a dose-dependent manner”; the “neutralization of EBV in Raji cells (in words)” value (“neutralization … (in words)” for short) is listed as “failed to neutralize EBV infection”. Besides, in experiment [2], the “binding to gp350 region AA 102-201 (linear peptides)” value (from here on “binding … (linear peptides)”) was “bound”. For the same molecule, in experiment [3] (purified antibodies 10 μg/ml), the “ELISA binding to purified EBV gp350/220” value is “+”.

B2: HB11: murine anti-EBV gp350 mAb, IgG1 κ; SEQ ID NO: 120 / 121; neutralizing (antibody, V domains shown)
VH: PSLVKPSQTLSLTCSVTGDSITSGFWNWIRKFPGNKLEYMGYISYSGSTYYNPSLKSRISITRDTSKNQYYLQLNSVTTEDTATYYCARGNGGNYDWYFDVWGAGTTVTVSSAKTTPPSVYPLAPGSAAQTNSMVTLG
VL: AIMSASLGEKVTMSCRASSSVNFMNWYQQKSDDSPKLLIYYISNLAPGVPARFSGSGSGNSYSLTISGMEGEDAATYYCQQFTSSPSWTFGGGTKLEIKRADAAPTV
modifications: heavy chain mAb HB11; light chain mAb HB11
notes: murine anti-EBV gp350 mAb, IgG1 κ; neutralizing
As for B2, in experiment [1], the “blocking … (in words)” value is “blocked EBV infection in a dose-dependent manner” and the “neutralization … (in words)” value is recorded as “dose-dependent neutralization”. Besides, the “binding … (linear peptides)” value in experiment [2] is recorded as “bound”. Also, in experiment [3] (purified antibodies 10 μg/ml), the “ELISA binding to purified EBV gp350/220” value is “+”.

B3: m72A1: EBV anti-gp350 neutralizing mouse antibody purified from HB168 hybridoma (ATCC); SEQ ID NO: 100 / 101 (antibody, V domains shown)
VH: PELVKPGTSMKISCKASGSSFTDYTMNWMKQSHGKNLEWIGLINPYNGGTRYNQKFKGKATLTLDKSSSTAYMEVLSLTSEDSAVYYCAGGLRRVNWFAYWGQGTLVSVSAAKTTPPSVYPLAPGSAAQTNSMVTLG
VL: QAVLTQESALTTSPGETVTLTCRSSTGAVTTSNYANWVQEKPDHLFTGLIGGTNNRVPGVPARFSGSLIGDKAALTITGAQTEDEAIYFCVLWHSNHWVFGGGTKLTVL
modifications: heavy chain mAb 72A1; light chain mAb 72A1
B3: in experiment [1], the “blocking of EBV infection of Raji cells (nAb activity)” value (from here on “blocking … (nAb activity)”) worked out at 93%, the “neutralization … (in words)” value was “dose-dependent neutralization” and the “neutralization of EBV in Raji cells” value is listed as 35-80%. Moreover, the “binding … (linear peptides)” value in experiment [2] is given as “bound”. Moreover, in experiment [3] (purified antibodies 10 μg/ml), the “ELISA binding to purified EBV gp350/220” value is listed as “+” and the “ELISA signal relative to negative control 54A1” value is on record as “greater than two times those of anti-KSHV gH/gL mAb 54A1”.

B4: h72A1: humanized 72A1 IgG1; heavy and light chain SEQ ID NOs: 180 and 181 (antibody, V domains shown)
VH: EVQLVESGGGLVQPGGSLRLSCAASGSSFTDYTMNWMRQSPGKGLEWIGLINPYNGGTRYADSVKGRATLSLDKSKNTAYLQMNSLRAEDTAIYYCAGGLRRVNWFAYWGQGTLVTVSS
VL: DAQLTQSPILLSASVGDRVTITCRSSTGAVTTSNYANWVQERTNGSFRGLIGGTNNRVPGVPSRFSGSLSGDDATLTISSLQPEDEADYFCVLWHSNHWVFGAGTKVEIKR
Consider B4, for which the “blocking … (nAb activity)” value in experiment [1] turned out to be 98%. For the same molecule, the “binding … (linear peptides)” value in experiment [2] is on record as “bound”.

B5: HB5: murine anti-EBV gp350 mAb, IgG2a κ; SEQ ID NO: 108 / 109; neutralizing (antibody, V domains shown)
VH: AELVRPGASVKISCKAFGYTFTNHNINWVKQRPGQGLDWIGYINPYNDYTSYNQKFKGKATLTVDKSSNTAYMELSSLTSEDSAVYYCARSEGWLRRGAWFAYWGQGTLVTVSAAKTTAPSVYPLAPVCGDTTGSSVTLG
VL: AILSVSPGERVSFSCRASQSIGTSIHWYQQRTNDSPRLLIKYASESISGIPPRFSGSGSGTDFTLSINSVESEDIADYHCQQSNSWPMLTFGAGTKLELKRADAAPTV
modifications: heavy chain mAb HB5; light chain mAb HB5
notes: as for B1
As for B5, in experiment [1], the “EBV neutralization, summary statement” value is “non-neutralizing”; the “blocking … (in words)” value is listed as “blocked EBV infection in a dose-dependent manner”; the “blocking … (nAb activity)” value is 90%; the “neutralization … (in words)” value is recorded as “dose-dependent neutralization”. Moreover, in experiment [1], the “neutralization of EBV in Raji cells” value is listed as 60-80%. In addition, the “binding … (linear peptides)” value in experiment [2] is on record as “bound”. Also, the “ELISA binding to purified EBV gp350/220” value in experiment [3] (purified antibodies 10 μg/ml) is on record as “+”. Moreover, in experiment [3] (soluble gp350 0.5 μg/ml), the “ELISA binding strength to gp350, compared with m72A1 / parental antibody” value is “equal to or greater than that of the positive control, m72A1”.
